Data taken from the DeepSol protein solubility set.

Assay: soluble on expression in E. coli; label from the status in PepcDB or PDB records

Sequence | soluble on expression in E. coli
SASSSKALIESIGSLDKDSYVSLLSKLIGESKFVQNNPPELIPQEDLIVKHVLDSLRPYSTETGGGPLVINHVAYHSGRGNLIVEYPGSVPGKILSFVGMHMDVVTANPDDWEFDPFSLSIDGDKLRGRGTTDCLGHVALVTELMKKLGQAKPALKSTVVAVFIASEENSSIPGVGVDMLVKDKLLDKLKSGPLYWIDTADKQPCVGTGGMIPWKLQFTGKLFHSGLAHKAINAMELAMEGLKEIQARFYRDFPPHPQEEVYGFATPSTMKPTQWCYPAGGINQIPGECTVSGDVRLTPFYDVKEVITKLQEYVDDINGNIERLETRGPVSKYVLPDENLRGRLTLSFDEASAGVACNLDSPGFHVLCKATEEVVGHVKPYSITGTLPLIRDLQDEGFDVQTSGYGLMATYHAKNEYCLLTDMCQGFDVFIRIISQLEQV | soluble
SATKELDLLADTAIAETEKPLDLGLDDSKTHAFLFTATWCDWYFKDSRPTASQQCISAQNSVNNLTKKFDKFAWQGIISRLWTGPSELANYTKKYQVKHPIAIDVSNSMFHQYGIKEFPSLVVVKNGEVILKTSDFSKPESLAKQLSKL | not soluble
SAVAIPQATSLTNLVFLTKLIPRGSFTTILPKHHRKPIFVFSLQTQFSSPVTTLTSKNPKDDEQQQKLSFTLNYLIDSCGLSPDSATVASRKLLLDSPERPNTVLNLLRDHGFTTAQISSLVKKRPVLLLANAESVLLPKLSFFLSIGVSKSLLARTLASDPTILTRSLVNQLIPSYNFLKSVLDSDEKIVAALRRTTWVFLEDHTKNLVPNINYMAETGVPEKCIKLLLTHFPEAVMQKNHEFQAIAKQAQEMGFNPQKSTFVLAIHALSGKGNKSIWDKCFEVYQRWGWSEDDIMCAFKKHPHCMMLSERKINRTMEYFVNEMNMAPRSIAQCPVVLFFSLEKRIIPRCSVTKVLVSNGLVKEDWSLTSLLVPVEKVFLEKLVIKYEEELPELMNLYLGCTKL | soluble
SDIEAYFERIGYKNSVNKLDLATLTEVLQHQMRAVPFENLSMHCGEAMCLGLEATFDHIVRKKRGGWCLQVNHLLYWALTKMGFETTMLGGYVYITPVNKYSSEMVHLLVQVTISDRNYIVDSAYGSSYQMWEPLELTSGKDQPQVPAIFRLTEENGTWYLDQIRREQDVPNQEFVNSDLLEKSKYRKIYSFTLEPRTIEDFEYVNTYLQTSPASVFVSTSFCSLQTSEGVCCLIGSTLTSRRFSYKDNVDLVEFKSLTEEEIEDVLKTTFGISLEKKFVPKHGELVFTI | soluble
SEAQQKNYTFRCLQMSSFANRSWSRTDSVVWLGDLQTHRWSNDSATISFTKPWSQGKLSNQQWEKLQHMFQVYRVSFTRDIQELVKMMSPKEDYPIEIQLSAGCEMYPGNASESFLHVAFQGKYVVRFWGTSWQTVPGAPSWLDLPIKVLNADQGTSATVQMLLNDTCPLFVRGLLEAGKSDLEKQEKPVAWLSSVPSSAHGHRQLVCHVSGFYPKPVWVMWMRGDQEQQGTHRGDFLPNADETWYLQATLDVEAGEEAGLACRVKHSSLGGQDIILYWGSLHHILDAQKMVWNHRHHHHHH | soluble
SEDDAPVIYGLEFQARALTPQTAETDAIRFLVGTQSLKYDNQIHIIDFDDENNIINKNVLLHQAGEIWHISASPADRGVLTTCYNRTSDSKVLTCAAVWRMPKELESGSHESPDDSSSTAQTLELLCHLDNTAHGNMACVVWEPMGDGKKIISLADNHILLWDLQESSSQAVLASSASLEGKGQLKFTSGRWSPHHNCTQVATANDTTLRGWDTRSMSQIYCIENAHGQLVRDLDFNPNKQYYLASCGDDCKVKFWDTRNVTEPVKTLEEHSHWVWNVRYNHSHDQLVLTGSSDSRVILSNMVSISSEPFGHLVDDDDISDQEDHRSEEKSKEPLQDNVIATYEEHEDSVYAVDWSSADPWLFASLSYDGRLVINRVPRALKYHILL | soluble
SEEASTGTMVLLWAGGFQKVGGEQVSPLTGEVTRHRDRNIPYNLPVPSHPSNWVPLAAEVGPDSCDCGGPAPGLLLLLTRPHDPQFTVPSGWGRQLCPGHALLDEPLLPETGGHPVCERVGHPAPSGPPDLLGLAAGHVLCRVRHDTPVRIPGTGSGCVCTHPAVQWQADLLPHLTLWPNPGQGTVRTSVRNSGHTEEQQVGLS | soluble
SEENEEEEELRPTALYTVGGSDEFTFVSPDGLSGQYTGPDHDGVVLQTENPAPTNCLAYYFEVHIMNAGEKGEIAIGFSKEHIYSEGYTVRSCAYIGNSGLICSQNGDGDRTVAKASDTYTTGDLVGCGIDSVSQEFFFTKNGTIVGTIPRQFRRPVYPTIVLHSQNEAVTVNFGGQIAFSFDFEVRSYFSFLA | soluble
SEHWQAGRFIGQQTSARPSSKPLLAVQIDDLLTLASRFVGEERARQSFIRFAYRQGKGFNPNQNADGDWIEHTERLLAGVLGTSSTRAVVKAAIEGRDMQLEDVVRIADEASEVLQFNRALLQGAIENINQGISVVDQNL | not soluble
SENLPAVTTEEPTPMGRGPVGPSGGGSTRDQVRTVVMRPSVSWEKAGPEEAKAPVRGGATVPAESLERPGPSSCFSRDASVITKLAKNEAGAFEPPCSETVPETVRWVWPWNP | soluble
SERCDDWGLDTMRQIQVFEDEPARIKCPLFEHFLKFNYSTAHSAGLTLIWYWTRQDRDLEEPINFRLPENRISKEKDVLWFRPTLLNDTGNYTCMLRNTTYCSKVAFPLEVVQKDSCFNSPMKLPVHKLYIEYGIQRITCPNVDGYFPSSVKPTITWYMGCYKIQNFNNVIPEGMNLSFLIALISNNGNYTCVVTYPENGRTFHLTRTLTVKVVGSPKNAVPPVIHSPNDHVVYEKEPGEELLIPCTVYFSFLMDSRNEVWWTIDGKKPDDITIDVTINESISHSRTEDETRTQILSIKKVTSEDLKRSYVCHARSAKGEVAKAAKVKQKGNRCGQ | soluble
SETESDAEVACDLSNMEITEELRQYFAETERHREELLRRQQLDAERLNSYVNAEHDLYCNTRRSVEAPAERPGERRQAEMKRLYWDSAAKIQAMEANVQLSFDKHCDPKQPNYWPVIPPKF | soluble
SFQGQRGWFCGSVSQDLRQFWVAEGGTISDPRAADFLFSCDASHPDTLRIYQSLDYIEDNATVFHAYYLSAVANAKIKNSVALGHFILPPACLQKEIRRKIGSFIWEQDQHFLIEKHDEVTPNEIKTLRENSELATEHKKELSKSPEKHFIRTPVVEKQMYFPLQNYPVNNMVTGYISIDAMKKFLGELHDFIPGTSGYLAYHVQNEINMSAIKNKLKRK | soluble
SFQRALPRQPVPSAQETVRKYLESVRPVLGDDAFDRATALANDFLRLHAPRLQLYLQLKSWCTSNYVSDWWEEFVYLRSRGSLINSTYYMMDFLYVTPTPLQAARAGNAVHTLLLYRHLLNRQEISPTLLMGMRPLCSAQYERMFNTTRIPGVEKDHLRHLQDSRHVAVFHRGRFFRVGTHSPNGLLSPRALEQQFQDILDDPSPACPLEEHLAALTAAPRSMWAQVRESVKTHAATALEAVEGAAFFVSLDSEPAGLTREDPAASLDAYAHALLAGRGHDRWFDKSFTLIVFSNGKLGLSVEHSWADCPVSGHLWEFTLATECFQLGYATDGHCKGHPDPTLPQPQRLQWDLPEQIQPSISLALRGAKTLSGNIDCHVFPFSHFGKSFIKCCHVSSDSFIQLVLQLAHFRDRGQFCLTYESAMTRLFLEGRTETVRSCTREACQFVRAMDNKETDQHCLALFRVAVDKHQALLKAAMSGQGIDRHLFALYIMSRLLHMQSPFLTQVQSQQWLLSTSQVPVQQTHLIDVHNYPDYVSSGGGFGPAHDHGYGISYIFMGENAITFHISSKKSSTETDSHRLGQHIENALLDVASLFRVGQHFKRQFRGENSDYRYNFLSCKTVDPNTPTSSTNL | soluble
SGERDQSSDTDQERKGGKHPYSSHYSSDFGSSPQSSGPSSPVNTPPCASNREKNPKRHLSDHHVRHQTVRKVSPKAIPNKKGVRVGFRSQSLNREPLRKDPDIVTKRVLSARLLKITELQNEVSELQVKLAQLLKENKALKSLQYRQEKALSKFEDAENEISQLIHRHNGEITALKERLRKSQEKERMAEKRVKDTEGELFRTKFSLQKLKKISEARHLPERDDLAKKLVSAELKLDNTEKD | not soluble
SGLYRIRVSTGASLYAGSNNQVQLWLVGQHGEAALGKRLWPARGKETELKVEVPEYLGPLLFVKLRKRHLLKDDAWFCNWISVQGPGAGDEVRFPCYRWVEGNGVLSLPEGTGRTVGEDPQGLFQKHREEELEERRKLYRWGNWKDGLILNMAGAKLYDLPVDERFLEDKRVDFEVSLAKGLADLAIKDSLNVLTCWKDLDDFNRIFWCGQSKLAERVRDSWKEDALFGYQFLNGANPVVLRRSAHLPARLVFPPGMEELQAQLEKELEGGTLFEADFSLLDGIKANVILCSQQHLAAPLVMLKLQPDGKLLPMVIQLQLPRTGSPPPPLFLPTDPPMAWLLAKCWVRSSDFQLHELQSHLLRGHLMAEVIVVATMRCLPSIHPIFKLIIPHLRYTLEINVRARTGLVSDMGIFDQIMSTGGGGHVQLLKQAGAFLTYSSFCPPDDLADRGLLGVKSSFYAQDALRLWEIIYRYVEGIVSLHYKTDVAVKDDPELQTWCREITEIGLQGAQDRGFPVSLQARDQVCHFVTMCIFTCTGQHASVHLGQLDWYSWVPNAPCTMRLPPPTTKDATLETVMATLPNFHQASLQMSITWQLGRRQPVMVAVGQHEEEYFSGPEPKAVLKKFREELAALDKEIEIRNAKLDMPYEYLRPSVVENSVAI | soluble
SGNLLKVLTCTDLEQGPNFFLDFENAQPTESEKEIYNQVNVVLKDAEGILEDLQSYRGAGHEIREAIQHPADEKLQEKAWGAVVPLVGKLKKFYEFSQRLEAALRGLLGALTSTPYSPTQHLEREQALAKQFAEILHFTLRFDELKMTNPAIQNDFSYYRRTLSRMRINNVPAEGENEVNNELANRMSLFYAEATPMLKTLSDATTKFVSENKNLPIENTTDCLSTMASVCRVMLETPEYRSRFTNEETVSFCLRVMVGVIILYDHVHPVGAFAKTSKIDMKGCIKVLKDQPPNSVEGLLNALRYTTKHLNDETTSKQIKSMLQ | soluble
SGWRSSVSRSLRPETSCDRPSSHLRNMDVNMAAELSPTNSSSSGELSVSPEPPRETQAFLGKVTVIDYFTFQHKHLKVTNIDDMTETLYVKLPENMTRCDHLPITCEYLLGRGSYGAVYAHADNATVKLYDSVTELYHELMVCDMIQIGKATAEDGQDKALVDYLSACTSCHALFMPQFRCSLQDYGHWHDGSIEPLVRGFQGLKDAVYFLNRHCGLFHSDISPSNILVDFTDTMWGMGRLVLTDYGTASLHDRNKMLDVRLKSSKGRQLYRLYCQREPFSIAKDTYKPLCLLSKCYILRGAGHIPDPSACGPVGAQTALRLDLQSLGYSLLYGIMHLADSTHKIPYPNPDMGFDRSDPLYFLQFAAPKVVLLEVLSQMWNLNLDMGLTSCGESPCVDVTAEHMSQFLQWCRSLKKRFKESYFFNCRPRFEHPHLPGLVAELLADDFFGPDGRRG | soluble
SHEVVRDVPAMVVDRSNSTLSREYLRRVDATPEVSIVGHCTDMEEAKEQIRRRNAYGIIYVPEDFSEHLNTGRKAHISLYCDMSGLLYYKSLLIANTLVSLEMNKEIKIARSVGATERQGEIISYPIDYEDVALYNPTV | not soluble
SHRRFRRHWLVSPSIWWHNRRILDFMPSENRLNGIDVCLNIGALERGSDCKRREERDMAGQAEQMAAELDRHGAAVFFREYPNADHGNVPFYSLTDCVEYLRKAWQR | not soluble
SIGLTVEDLLSLRQVVSGNPEALAPLLENISARYPQLREHIMANPEVFVSMLLEA | soluble
SKKFSWNTSFNFTRNVNKVEKLENPYVYGSRDMVRNEEGYALYSFWMYNQLYVDKQTGQAVFEDVNGDGQITVADRKIMGNANPKFFGGLTNTFKYAGFDLNVFFVYQYGNKVVSFDRILNEGGGTKDNNRGIFEYNMNRWQKPGDDTDVPRVTSVGNNYGIEQNSRFLEDGSFIRLKTLTLGYTVPVDFTKKYSVQSVRFFVTGTNLLLFTKYKGPDPEAVHTSEQNARGIDVGTPPQPVSVQGGLTITL | not soluble
